Measured values from patent publication US20140141037A1.

Molecular target: RSV F uncleavable ectodomain (Delp21Furx, the ectodomain polypeptide) (respiratory syncytial virus)
Assay: Size exclusion chromatography of the mixture of RSV F monomer and HRA peptide; monomer alone ~75 mls, reference trimer (FP deletion) ~65 mls

B1: RSV F HRA peptide, RSV residues 160-207 (peptide)
peptide: LEGEVNKIKSALLSTNKAVVSLSNGVSVLTSKVLDLKNYIDKQLLPIV
- Retention Volume Superdex P200: 60 mL
